Results reported in the supplement of paper PMC12855868.

B1: library; numbered along this chain (parent)
chain: MAAAGGARLLRAASAVLGGPAGRWLHHAGSRAGSSGLLRNRGPGGSAEASRSLSVSARARSSSEDKITVHFINRDGETLTTKGKVGDSLLDVVVENNLDIDGFGACEGTLACSTCHLIFEDHIYEKLDAITDEENDMLDLAYGLTDRSRLGCQICLTKSMDNMTVRVPETVADARQSIDVGKTS

Variants of: B1
Test: scaled log2 fold change in cell abundance, elesclomol vs control (0 = silent mean, 1 = nonsense mean) (scaled log2 ratio); higher = higher viability under elesclomol (loss of FDX1 cuproptosis function)
Details: glucose 10 mM
[1] = with ABC1 FDX1 KO, elesclomol 5 nM, 14 days
[2] = with HEK293T FDX1 KO, elesclomol 40 nM, 11 days
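Note: variant abundance is its share of total variant reads in each endpoint sample, from next-generation sequencing of the integrated ORF PCR-amplified out of genomic DNA.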

Variant | scaled log2 fold change [1] | scaled log2 fold change [2]
E120V | 0.256 | -0.849
E120M | -0.223 | 0.0763
E120K | 0.0347 | 0.542
E120D | 0.203 | 0.978
E120N | 0.109 | 0.835
E120L | 0.202 | 0.102
E120G | 0.367 | -0.0815
E120I | -0.276 | 0.524
E120R | 0.278 | -0.473
E120A | 0.194 | -0.0676
E120P | 0.108 | 0.193
E120W | 0.298 | -0.149
E120C | 0.227 | -0.059
E120H | -0.0176 | -0.794
E120Y | 0.267 | -0.449
E120Q | -0.192 | 0.816
E120T | 0.0538 | -0.0827
E120S | 0.0771 | -1.62
E120F | 0.141 | -0.0751
I118M | 0.0783 | 0.694
I118P | 1.16 | 0.991
I118C | -0.313 | -0.183
I118W | 0.135 | 0.474
I118H | 0.249 | 0.918
I118Q | 0.0897 | 0.252

Variant | scaled log2 fold change [1] | scaled log2 fold change [2]
I118D | 0.0488 | 0.0453
I118F | -0.0055 | -0.412
I118S | 0.159 | -0.594
I118L | 0.0425 | 0.108
I118R | -0.527 | -0.461
I118T | -0.289 | 0.934
I118G | 0.403 | -0.108
I118Y | 0.0377 | -0.427
I118E | -0.0205 | -0.0505
I118V | -0.103 | -0.548
I118A | 0.0431 | -0.147
I118K | 0.00843 | 0.202
I118N | 0.286 | -0.696
T114M | 0.114 | 0.455
T114S | -0.416 | 0.997
T114E | 0.811 | 1.09
T114V | 0.906 | 0.208
T114C | 0.158 | 0.117
T114H | -0.00732 | 0.334
T114I | 1.02 | 1.01
T114G | -1.41 | -0.22
T114K | 0.766 | 0.199
T114W | 1.03 | 0.814
T114L | 0.463 | 0.0445
T114A | -0.0113 | 0.0983

Variant | scaled log2 fold change [1] | scaled log2 fold change [2]
T114D | 0.795 | 0.798
T114N | 0.0748 | 1.03
T114Q | -0.112 | 0.0599
T114F | 0.685 | 0.235
T114P | 1.01 | 0.956
T114R | 0.517 | 0.411
T114Y | 0.838 | 0.412
D121G | 0.178 | -0.427
D121W | 0.324 | -0.123
D121C | -0.164 | -0.257
D121N | -0.0427 | –
D121L | -0.202 | -0.00537
D121A | -0.0978 | 0.0802
D121T | -0.0111 | –
D121P | -0.198 | –
D121R | -0.0191 | 1.32
D121F | 0.353 | –
D121E | 0.304 | -0.162
D121I | 0.217 | –
D121S | -0.507 | –
D121Y | -0.243 | 0.698
D121Q | 0.169 | 0.0204
D121M | -0.556 | 1.79
D121H | -0.394 | -0.25
D121V | 0.222 | 0.458

Variant | scaled log2 fold change [1] | scaled log2 fold change [2]
H122F | -0.949 | –
H122W | 0.634 | -0.608
H122E | 0.137 | –
H122G | -1.06 | –
H122T | 0.191 | 0.139
H122C | -0.812 | –
H122R | -0.313 | 0.00681
H122L | -0.634 | –
H122D | -0.343 | –
H122K | -0.152 | -0.221
H122S | -0.554 | –
H122M | 0.0412 | 0.368
H122N | 0.564 | 0.129
H122Y | -0.259 | –
H122I | 0.215 | 1.13
H122Q | -0.0669 | 0.352
H122P | -0.0781 | -0.564
H122V | 0.297 | -0.437
S113K | 0.372 | 0.195
S113P | 1.03 | 1.16
S113N | -0.0206 | 0.213
S113Q | -0.139 | -0.137
S113Y | 0.038 | 0.0184
S113M | 0.304 | –
S113T | 0.186 | 0.232

Variant | scaled log2 fold change [1] | scaled log2 fold change [2]
S113W | 0.446 | 0.762
S113L | 0.0304 | 0.215
S113R | 0.116 | 0.165
S113V | 0.242 | -0.434
E125P | -0.165 | 0.0466
E125C | -0.817 | 0.0813
E125T | -0.0928 | 0.0298
E125R | 0.109 | -0.189
E125Q | -0.176 | -0.00485
E125D | 0.426 | 0.469
E125Y | -0.278 | -0.0436
E125F | -0.241 | 0.00284
E125A | -0.503 | -0.173
E125S | 0.239 | –
E125M | 0.0258 | –
E125V | 0.114 | -0.317
E125N | -0.0561 | -0.574
E125K | 0.48 | 0.921
E125G | -0.304 | -0.096
E125H | -0.583 | -0.234
E125L | 0.17 | 0.357
E125W | -0.76 | -0.135
